Assay results as given in PMC7949051, “Comparison of angiopoietin-like protein 3 and 4 reveals structural and mechanistic similarities” (The Journal of Biological Chemistry, 2021).

T1: Bovine lipoprotein lipase (bovine, UniProt P11151 29-478)
T1 sequence (looked up): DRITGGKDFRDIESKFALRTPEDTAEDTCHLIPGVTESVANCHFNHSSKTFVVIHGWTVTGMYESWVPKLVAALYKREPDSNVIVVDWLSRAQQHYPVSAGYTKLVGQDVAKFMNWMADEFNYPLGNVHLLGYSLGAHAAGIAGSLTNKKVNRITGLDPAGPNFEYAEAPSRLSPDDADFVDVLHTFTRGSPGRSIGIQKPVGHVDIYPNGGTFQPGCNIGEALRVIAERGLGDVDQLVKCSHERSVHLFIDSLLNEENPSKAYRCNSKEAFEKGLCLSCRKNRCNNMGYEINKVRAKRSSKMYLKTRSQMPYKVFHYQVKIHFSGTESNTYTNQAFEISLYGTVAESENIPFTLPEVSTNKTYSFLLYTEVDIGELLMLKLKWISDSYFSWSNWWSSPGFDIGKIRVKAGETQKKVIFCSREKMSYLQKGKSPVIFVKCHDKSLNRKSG


Legend:
[1] = biological target: T1, Bovine lipoprotein lipase; test: cell-based or functional assay
[2] = biological target: T1, Bovine lipoprotein lipase; test: enzyme inhibition kinetics (global noncompetitive fit of Michaelis-Menten curves); 10 nM bovine LPL pre-incubated with ANGPTL for 10 min at 22 °C, human VLDL varied, NEFA enzyme-coupled Amplex UltraRed read-out at 37 °C, initial rates; three biological replicates; settings: both partners purified
[3] = biological target: the molecule itself; test: SEC-MALS; 24-ml S-200 column, 20 mM Tris-HCl pH 8, 150 mM NaCl, 5% glycerol, 0.5 ml/min; separately concentrated SEC peaks reinjected
[4] = biological target: the molecule itself; test: SEC; HEK-293-produced N-terminal ANGPTL3; elution compared with E. coli-produced ANGPTL3

Row | IC50 of inhibition of LPL activity (10 nM LPL, 200 μg/ml VLDL triglycerides, NEFA/Amplex UltraRed assay) [1] [nM] | Ki [2] [nM] | Binder | stoichiometry N [3] | stoichiometry N [4]
1 | 5.8 | 7.5 | N-terminal domain of human ANGPTL3 (S17-R224), trimer (domain or fragment, UniProt Q9Y5C1 17-224, looked up, N-terminal (coiled-coil) domain of human ANGPTL3, residues S17 to R224; purified protein with tag 26.8 kDa; Same construct as m1; also called ANGPTL3 peak 2; ANGPTL3 trimer; source: E. coli Bl21 (DE3) RIPL, purified (Ni-NTA, MonoQ anion exchange, SEC; peak 2 pooled)) SRIDQDNSSFDSLSPEPKSRFAMLDDVKILANGLLQLGHGLKDFVHKTKGQINDIFQKLNIFDQSFYDLSLQTSEIKEEEKELRRTTYKLQVKNEEVKNMSLELNSKLESLLEEKILLQQKVKYLEEQLTNLIQNQPETPEHPEVTSLKTFVEKQDNSIKDLLQTVEDQYKQLNQQHSQIKEIENQLRRTSIQEPTEISLSSKPRAPR | 3 | –
2 | 4.8 | 3.6 | N-terminal domain of human ANGPTL4 (domain or fragment, UniProt Q9BY76 26-163, looked up, N-terminal (coiled-coil) domain of human ANGPTL4; monomer 15.4 kDa; also called N-terminal ANGPTL4; ANGPTL4 trimer) GPVQSKSPRFASWDEMNVLAHGLLQLGQGLREHAERTRSQLSALERRLSACGSACQGTEGSTDLPLAPESRVDPEVLHSLQTQLKAQNSRIQQLFHKVAQQQRHLEKQHLRIQHLQSQFGLLDHKHLDHEVAKPARRK | 3 | –

The remaining lines, values behind:

Row | Binder | IC50 of inhibition of LPL activity (10 nM LPL, 200 μg/ml VLDL triglycerides, NEFA/Amplex UltraRed assay) [1] [nM] | Ki [2] [nM] | stoichiometry N [3] | stoichiometry N [4]
3 | N-terminal domain of human ANGPTL3 (S17-R224), hexamer (domain or fragment, UniProt Q9Y5C1 17-224, looked up, N-terminal (coiled-coil) domain of human ANGPTL3, residues S17 to R224; purified protein with tag 26.8 kDa; No TEV cleavage step is described; Same construct as m2; also called ANGPTL3 peak 1; ANGPTL3 hexamer; source: E. coli Bl21 (DE3) RIPL, purified (Ni-NTA, MonoQ anion exchange, SEC; peak 1 pooled); not shown: His6 with TEV cleavage site, N-terminal, kept) SRIDQDNSSFDSLSPEPKSRFAMLDDVKILANGLLQLGHGLKDFVHKTKGQINDIFQKLNIFDQSFYDLSLQTSEIKEEEKELRRTTYKLQVKNEEVKNMSLELNSKLESLLEEKILLQQKVKYLEEQLTNLIQNQPETPEHPEVTSLKTFVEKQDNSIKDLLQTVEDQYKQLNQQHSQIKEIENQLRRTSIQEPTEISLSSKPRAPR | 14.4 | 13.7 | 6 | –
4 | N-terminal ANGPTL3 (1 to 224) produced in HEK-293 cells (domain or fragment, human, UniProt Q9Y5C1 17-224, looked up, N-linked glycans (sites not given), signal peptide in the construct; human ANGPTL3 residues 1 to 224, collected from the expression medium; also called ANGPTL3 produced in mammalian cells) SRIDQDNSSFDSLSPEPKSRFAMLDDVKILANGLLQLGHGLKDFVHKTKGQINDIFQKLNIFDQSFYDLSLQTSEIKEEEKELRRTTYKLQVKNEEVKNMSLELNSKLESLLEEKILLQQKVKYLEEQLTNLIQNQPETPEHPEVTSLKTFVEKQDNSIKDLLQTVEDQYKQLNQQHSQIKEIENQLRRTSIQEPTEISLSSKPRAPR | – | – | – | 3
